The binders below were run against T1, human PD-L1-Fc (R&D Systems) (human, UniProt Q9NZQ7 19-239) (assay: soluble Affimer ELISA).
T1 construct: Bought from R&D Systems; Biotinylated in-house for the phage selection; also called huPD-L1-Fc; human PD-L1-Fc antigen; not shown: Fc part of the bought fusion
T1 sequence (Q9NZQ7 19-239 limits assumed): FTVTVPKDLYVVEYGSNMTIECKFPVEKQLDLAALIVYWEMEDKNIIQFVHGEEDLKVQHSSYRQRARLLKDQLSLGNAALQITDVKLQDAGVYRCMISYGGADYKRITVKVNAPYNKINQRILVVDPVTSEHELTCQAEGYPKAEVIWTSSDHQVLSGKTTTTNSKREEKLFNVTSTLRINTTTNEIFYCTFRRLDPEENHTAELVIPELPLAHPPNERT

| binding result | Binder |
| --- | --- |
| binds | Clone 241 (designed binder, His-tagged) MIPGGLSEAKPATPEIQEIVDKVKPQLEEKTGETYGKLEAVQYKTQVVSRLHFPNFQGTNYYIKVRAGDNKYMHLKVFKSLNLEHPTDETEDLVLTGYQVDKNKDDELTGF |
| binds | Clone 245 (designed binder, His-tagged) MIPGGLSEAKPATPEIQEIVDKVKPQLEEKTGETYGKLEAVQYKTQVVGYLELWKWSGTNYYIKVRAGDNKYMHLKVFKSLYNLHHPHKDEDLVLTGYQVDKNKDDELTGF |
| binds | Clone 21 (designed binder, His-tagged) MIPGGLSEAKPATPEIQEIVDKVKPQLEEKTGETYGKLEAVQYKTQVVKRPHFLQFSGTNYYIKVRAGDNKYMHLKVFKSLNIGPAKKQLEDLVLTGYQVDKNKDDELTGF |
| binds | Clone 216 (designed binder, His-tagged) MIPGGLSEAKPATPEIQEIVDKVKPQLEEKTGETYGKLEAVQYKTQVVFTEVKPFVEGTNYYIKVRAGDNKYMHLKVFKSLSWNAPFPAGEDLVLTGYQVDKNKDDELTGF |
| binds | Clone 234 (designed binder, His-tagged) MIPGGLSEAKPATPEIQEIVDKVKPQLEEKTGETYGKLEAVQYKTQVVRNSGVWEFEGTNYYIKVRAGDNKYMHLKVFKSLGKYKTNWYFEDLVLTGYQVDKNKDDELTGF |
| binds | Clone 239 (designed binder, His-tagged) MIPGGLSEAKPATPEIQEIVDKVKPQLEEKTGETYGKLEAVQYKTQVVLTIPPTAFSGTNYYIKVRAGDNKYMHLKVFKSLGWNLHEVALEDLVLTGYQVDKNKDDELTGF |
| binds | Clone 222 (designed binder, His-tagged) MIPGGLSEAEPATPEIQEIVDKVKPQLEEKTGETYGKLEAVQYKTQVVQRDHFPEFPGTNYYIKVRAGDNKYMHLKVFKSLGHELYALYAEDLVLTGYQVDKNKDDELTGF |
| binds | Clone 226 (designed binder, His-tagged) MIPGGLSEAKPATPEIQEIVDKVKPQLEEKTGETYGKLEAVQYKTQVVYKHDDEYGFGTNYYIKVRAGDNKYMHLKVFKSLKWTNRANKPEDLVLTGYQVDKNKDDELTGF |
| binds | Clone 243 (designed binder, His-tagged) MIPGGLSEAKPATPEIQEIVDKVKPQLEEKTGETYGKLEAVQYKTQVVWKQITLPVDGTNYYIKVRAGDNKYMHLKVFKSLHWDEYEYDEEDLVLTGYQVDKNKDDELTGF |
| binds | Clone 218 (designed binder, His-tagged) MIPGGLSEAKPATPEIQEIVDKVKPQLEEKTGETYGKLEAVQYKTQVVWRVYFPDFKGTNYYIKVRAGDNKYMHLKVFKSLDEVDEIPHFEDLVLTGYQVDKNKDDELTGF |
| binds | Clone 215 (designed binder, His-tagged) MIPGGLSEAKPATPEIQEIVDKVKPQLEEKTGETYGKLEAVQYKTQVVRRVFFPEFPGTNYYIKVRAGDNKYMHLKVFKSLEQPIEGDLWEDLVLTGYQVDKNKDDELTGF |
| binds | Clone 244 (designed binder, His-tagged) MIPGGLSEAKPATPEIQEIVDKVKPQLEEKTGETYGKLEAVQYKTQVVWDSEALPIDGTNYYIKVRAGDNKYMHLKVFKSLRWWPWDAVGEDLVLTGYQVDKNKDDELTGF |
| binds | Clone 220 (designed binder, His-tagged) MIPGGLSEAKPATPEIQEIVDKVKPQLEEKTGETYGKLEAVQYKTQVVNRWNIREFEGTNYYIKVRAGDNKYMHLKVFKSLINVPVTELLEDLVLTGYQVDKNKDDELTGF |
| binds | Clone 231 (designed binder, His-tagged) MIPGGLSEAKPATPEIQEIVDKVKPQLEEKTGETYGKLEAVQYKTQVVARWHWFHHFGTNYYIKVRAGDNKYMHLKVFKSLNPINGQETWEDLVLTGYQVDKNKDDELTGF |
| binds | Clone 214 (designed binder, His-tagged) MIPGGLSEAEPATPEIQEIVDKVKPQLEEKTGETYGKLEAVQYKTQVVIKIHHGSWEGTNYYIKVRAGDNKYMHLKVFKSLLFWQKQFYREDLVLTGYQVDKNKDDELTGF |
| binds | Clone 238 (designed binder, His-tagged) MIPGGLSEAKPATPEIQEIVDKVKPQLEEKTGETYGKLEAVQYKTQVVRHKGLWQFEGTNYYIKVRAGDNKYMHLKVFKSLSHQPYRATIEDLVLTGYQVDKNKDDELTGF |
| binds | Clone 212 (designed binder, His-tagged) MIPGGLSEAKPATPEIQEIVDKVKPQLEEKTGETYGKLEAVQYKTQVVYAFITPVTHGTNYYIKVRAGDNKYMHLKVFKSLWLNNFGKNFEDLVLTGYQVDKNKDDELTGF |
| binds | Clone 237 (designed binder, His-tagged) MIPGGLSEAKPATPEIQEIVDKVKPQLEEKTGETYGKLEAVQYKTQVVVAGLKWHWEGTNYYIKVRAGDNKYMHLKVFKSLIYASQYDYREDLVLTGYQVDKNKDDELTGF |

| binding result | Binder |
| --- | --- |
| binds | Clone 242 (designed binder, His-tagged) MIPGGLSEAKPATPEIQEIVDKVKPQLEEKTGETYGKLEAVQYKTQVVVEWSESGYDGTNYYIKVRAGDNKYMHLKVFKSLRLKSNVNIAEDLVLTGYQVDKNKDDELTGF |
| binds | Clone 213 (designed binder, His-tagged) MIPGGLSEAKPATPEIQEIVDKVKPQLEEKTGETYGKLEAVQYKTQVVKQHTKEWAPGTNYYIKVRAGDNKYMHLKVFKSLWNHLYHYPFEDLVLTGYQVDKNKDDELTGF |
| binds | Clone 24 (designed binder, His-tagged) MIPGGLSEAKPATPEIQEIVDKVKPQLEEKTGETYGKLEAVQYKTQVVEEGTPEWAPGTNYYIKVRAGDNKYMHLKVFKSLWSDVLYNDFEDLVLTGYQVDKNKDDELTGF |
| binds | Clone 225 (designed binder, His-tagged) MIPGGLSEAKPATPEIQEIVDKVKPQLEEKTGETYGKLEAVQYKTQVVDLHTPHYAPGTNYYIKVRAGDNKYMHLKVFKSLWNTLLEFGGEDLVLTGYQVDKNKDDELTGF |
| binds | Clone 210 (designed binder, His-tagged) MIPGGLSEAKPATPEIQEIVDKVKPQLEEKTGETYGKLEAVQYKTQVVWEYAGDYLEGTNYYIKVRAGDNKYMHLKVFKSLFHGIWWARVEDLVLTGYQVDKNKDDELTGF |
| binds | Clone 230 (designed binder, His-tagged) MIPGGLSEAKPATPEIQEIVDKVKPQLEEKTGETYGKLEAVQYKTQVVHVSNFIIPHGTNYYIKVRAGDNKYMHLKVFKSLNWEGNDLATEDLVLTGYQVDKNKDDELTGF |
| binds | Clone 235 (designed binder, His-tagged) MIPGGLSEAKPATPEIQEIVDKVKPQLEEKTGETYGKLEAVQYKTQVVWNPPSLPISGTNYYIKVRAGDNKYMHLKVFKSLAWDNTAKHGEDLVLTGYQVDKNKDDELTGF |
| binds | Clone 228 (designed binder, His-tagged) MIPGGLSEAKPATPEIQEIVDKVKPQLEEKTGETYGKLEAVQYKTQVVVWTSDDAWQGTNYYIKVRAGDNKYMHLKVFKSLFKFEIYKHTEDLVLTGYQVDKNKDDELTGF |
| binds | Clone 211 (designed binder, His-tagged) MIPGGLSEAKPATPEIQEIVDKVKPQLEEKTGETYGKLEAVQYKTQVVTHPEDAYSWGTNYYIKVRAGDNKYMHLKVFKSLLKPGGLLDFEDLVLTGYQVDKNKDDELTGF |
| binds | Clone 232 (designed binder, His-tagged) MIPGGLSEAKPATPEIQEIVDKVKPQLEEKTGETYGKLEAVQYKTQVVTKHSATFFHGTNYYIKVRAGDNKYMHLKVFKSLIGNGQYWYREDLVLTGYQVDKNKDDELTGF |
| binds | Clone 221 (designed binder, His-tagged) MIPGGLSEAKPATPEIQEIVDKVKPQLEEKTGETYGKLEAVQYKTQVVIQDVDWRLWGTNYYIKVRAGDNKYMHLKVFKSLVPSDWSKTIEDLVLTGYQVDKNKDDELTGF |
| binds | Clone 251 (designed binder, His-tagged) MIPGGLSEAKPATPEIQEIVDKVKPQLEEKTGETYGKLEAVQYKTQVVATDQDWRKWGTNYYIKVRAGDNKYMHLKVFKSLIPLNWQLQEEDLVLTGYQVDKNKDDELTGF |
| binds | Clone 229 (designed binder, His-tagged) MIPGGLSEAKPATPEIQEIVDKVKPQLEEKTGETYGKLEAVQYKTQVVHSSSKPYIHGTNYYIKVRAGDNKYMHLKVFKSLNWNRPYNDLEDLVLTGYQVDKNKDDELTGF |
| binds | Clone 23 (designed binder, His-tagged) MIPGGLSEAKPATPEIQEIVDKVKPQLEEKTGETYGKLEAVQYKTQVVYWEHHHYGFGTNYYIKVRAGDNKYMHLKVFKSLAWPEIDPPVEDLVLTGYQVDKNKDDELTGF |
| binds | Clone 82 (designed binder, His-tagged) MIPGGLSEAKPATPEIQEIVDKVKPQLEEKTGETYGKLEAVQYKTQVVFWQLHRYGFGTNYYIKVRAGDNKYMHLKVFKSLEWNRLSPLWEDLVLTGYQVDKNKDDELTGF |
| binds | Clone 227 (designed binder, His-tagged) MIPGGLSEAKPATPEIQEIVDKVKPQLEEKTGETYGKLEAVQYKTQVVYVRWHEYGFGTNYYIKVRAGDNKYMHLKVFKSLSNQLIPQPIEDLVLTGYQVDKNKDDELTGF |
| binds | Clone 22 (designed binder, His-tagged) MIPGGLSEAKPATPEIQEIVDKVKPQLEEKTGETYGKLEAVQYKTQVVHRLHFPIYYGTNYYIKVRAGDNKYMHLKVFKSLHFTLPTQHPEDLVLTGYQVDKNKDDELTGF |

From patent US20250243277A1 (AVACTA LIFE SCIENCES, published 2025)
